Residual content of exenatide in percent (%) data for one substance are collected here from patent publication US20240156915A1.

The target in this test is exenatide (Gila monster) (UniProt P26349).
exenatide (Gila monster), sequence (P26349 48-86): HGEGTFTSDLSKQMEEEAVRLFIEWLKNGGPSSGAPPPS

Turning to pepsin (enzyme), the Residual content of exenatide in percent (%) came out at 0%.
